Source: paper PMC7904728, “ITSN1 regulates SAM68 solubility through SH3 domain interactions with SAM68 proline-rich motifs”

Biological target: ITSN1 SH3D-His (UniProt Q15811-2 1063-1150)
Experiment: NMR; 300 uM SH3D, 1:1.2 molar ratio; shift perturbations in eight residues; EMSA: 20 mM Tris-HCl pH 7.4, 50 mM KCl, 1 mM Mg, room temperature, 5 min, 0.7% agarose 0.5x TBE; NMR: 298 K, protein dialyzed in 12 mM potassium
Conditions: protein: recombinant; tags: His (pET22b); single strand

Chain of ITSN1 SH3D-His (Q15811 1063-1150): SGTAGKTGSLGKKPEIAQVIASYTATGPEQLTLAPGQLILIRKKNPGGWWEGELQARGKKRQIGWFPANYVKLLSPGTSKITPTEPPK

| Binder | binding result |
| --- | --- |
| TTTTTTTTTTTT (ssDNA) [T12] | binds |
| CACACACACACA (ssDNA) [CA6] | binds |
